In US20260001928A1 (CORTERIA PHARMACEUTICALS, priority 2022, published 2026):
Values belong to the binder of their own block, whether it stands above or below them. *1 amine or outer side, *2 acyl side, *3 side chain or, on linkers, in order; H or OH if unused. Side-chain parts run from the residue outwards. [ ]: non-standard residue; d: D form. The star is where a group is joined. C18 diacid = O=C(O)CCCCCCCCCCCCCCCCC(=O)*; C16 diacid = O=C(O)CCCCCCCCCCCCCCC(=O)*; γGlu = O=C(O)[C@H](CCC(=O)[*:2])N[*:1]; Ac6c = NC1(C(=O)O)CCCCC1; Ac5c = NC1(C(=O)O)CCCC1

What was measured:
CRF1R receptor = molecular target: T1, CRF1R receptor (UniProt P34998 24-415, limits assumed); test: cell-based or functional assay
T1 sequence (looked up): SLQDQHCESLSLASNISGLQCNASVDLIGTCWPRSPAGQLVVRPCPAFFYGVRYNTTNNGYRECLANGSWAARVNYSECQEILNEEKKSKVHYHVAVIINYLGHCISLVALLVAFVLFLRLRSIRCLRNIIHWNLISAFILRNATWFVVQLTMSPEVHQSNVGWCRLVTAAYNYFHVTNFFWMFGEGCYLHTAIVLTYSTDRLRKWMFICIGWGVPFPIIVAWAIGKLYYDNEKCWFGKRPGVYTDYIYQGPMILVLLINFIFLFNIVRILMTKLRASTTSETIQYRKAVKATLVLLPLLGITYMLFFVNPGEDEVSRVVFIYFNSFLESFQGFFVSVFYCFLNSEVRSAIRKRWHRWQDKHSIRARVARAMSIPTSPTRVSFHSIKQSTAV

[1] = molecular target: human corticotropin-releasing factor 2a (CRF2a receptor) (human), Q13324; test: cell-based or functional assay
Chain of human corticotropin-releasing factor 2a (CRF2a receptor) (human), Q13324 (Q13324 20-411): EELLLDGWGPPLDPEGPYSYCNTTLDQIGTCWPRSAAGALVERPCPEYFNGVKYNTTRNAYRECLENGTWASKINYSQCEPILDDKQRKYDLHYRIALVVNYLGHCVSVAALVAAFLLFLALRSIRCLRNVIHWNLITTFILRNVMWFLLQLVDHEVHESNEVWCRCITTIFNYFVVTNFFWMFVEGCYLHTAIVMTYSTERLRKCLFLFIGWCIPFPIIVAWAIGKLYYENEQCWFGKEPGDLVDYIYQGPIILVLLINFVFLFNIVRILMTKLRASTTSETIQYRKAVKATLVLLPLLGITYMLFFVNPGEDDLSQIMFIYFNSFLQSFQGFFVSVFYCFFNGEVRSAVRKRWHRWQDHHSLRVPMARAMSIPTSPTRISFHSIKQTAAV

Emax (% I) (CRF1R receptor): 9%
EC50 [nM] (cAMP) [1]: 0.81 nM
B1: SEQ ID NO 59 (peptide)
peptide: Ac-IVLSLD[dV]PIKLK([γGlu-C16 diacid])KILLEQEKQKKQREQAETN[Ac6c]QILAQV-NH2
SMILES: CC[C@H](C)[C@H](NC(C)=O)C(=O)N[C@H](C(=O)N[C@@H](CC(C)C)C(=O)N[C@@H](CO)C(=O)N[C@@H](CC(C)C)C(=O)N[C@@H](CC(=O)O)C(=O)N[C@@H](C(=O)N1CCC[C@H]1C(=O)N[C@H](C(=O)N[C@@H](CCCCN)C(=O)N[C@@H](CC(C)C)C(=O)N[C@@H](CCCCNC(=O)CC[C@H](NC(=O)CCCCCCCCCCCCCCC(=O)O)C(=O)O)C(=O)N[C@@H](CCCCN)C(=O)N[C@H](C(=O)N[C@@H](CC(C)C)C(=O)N[C@@H](CC(C)C)C(=O)N[C@@H](CCC(=O)O)C(=O)N[C@@H](CCC(N)=O)C(=O)N[C@@H](CCC(=O)O)C(=O)N[C@@H](CCCCN)C(=O)N[C@@H](CCC(N)=O)C(=O)N[C@@H](CCCCN)C(=O)N[C@@H](CCCCN)C(=O)N[C@@H](CCC(N)=O)C(=O)N[C@@H](CCCNC(=N)N)C(=O)N[C@@H](CCC(=O)O)C(=O)N[C@@H](CCC(N)=O)C(=O)N[C@@H](C)C(=O)N[C@@H](CCC(=O)O)C(=O)N[C@H](C(=O)N[C@@H](CC(N)=O)C(=O)NC1(C(=O)N[C@@H](CCC(N)=O)C(=O)N[C@H](C(=O)N[C@@H](CC(C)C)C(=O)N[C@@H](C)C(=O)N[C@@H](CCC(N)=O)C(=O)N[C@H](C(N)=O)C(C)C)[C@@H](C)CC)CCCCC1)[C@@H](C)O)[C@@H](C)CC)[C@@H](C)CC)C(C)C)C(C)C

Emax (% I) (CRF1R receptor): 5%
EC50 [nM] (cAMP) [1]: 0.34 nM
B2: SEQ ID NO 60 (peptide)
peptide: Ac-IVLSLD[dV]PIKLK([γGlu-C16 diacid])KILLEQEKQKKQREQAETN[Ac5c]QILAQV-NH2
SMILES: CC[C@H](C)[C@H](NC(C)=O)C(=O)N[C@H](C(=O)N[C@@H](CC(C)C)C(=O)N[C@@H](CO)C(=O)N[C@@H](CC(C)C)C(=O)N[C@@H](CC(=O)O)C(=O)N[C@@H](C(=O)N1CCC[C@H]1C(=O)N[C@H](C(=O)N[C@@H](CCCCN)C(=O)N[C@@H](CC(C)C)C(=O)N[C@@H](CCCCNC(=O)CC[C@H](NC(=O)CCCCCCCCCCCCCCC(=O)O)C(=O)O)C(=O)N[C@@H](CCCCN)C(=O)N[C@H](C(=O)N[C@@H](CC(C)C)C(=O)N[C@@H](CC(C)C)C(=O)N[C@@H](CCC(=O)O)C(=O)N[C@@H](CCC(N)=O)C(=O)N[C@@H](CCC(=O)O)C(=O)N[C@@H](CCCCN)C(=O)N[C@@H](CCC(N)=O)C(=O)N[C@@H](CCCCN)C(=O)N[C@@H](CCCCN)C(=O)N[C@@H](CCC(N)=O)C(=O)N[C@@H](CCCNC(=N)N)C(=O)N[C@@H](CCC(=O)O)C(=O)N[C@@H](CCC(N)=O)C(=O)N[C@@H](C)C(=O)N[C@@H](CCC(=O)O)C(=O)N[C@H](C(=O)N[C@@H](CC(N)=O)C(=O)NC1(C(=O)N[C@@H](CCC(N)=O)C(=O)N[C@H](C(=O)N[C@@H](CC(C)C)C(=O)N[C@@H](C)C(=O)N[C@@H](CCC(N)=O)C(=O)N[C@H](C(N)=O)C(C)C)[C@@H](C)CC)CCCC1)[C@@H](C)O)[C@@H](C)CC)[C@@H](C)CC)C(C)C)C(C)C

Emax (% I) (CRF1R receptor): 10%
EC50 [nM] (cAMP) [1]: 0.5 nM
B3: SEQ ID NO 134 (peptide)
peptide: Ac-IVLSLD[dV]PIKLK([γGlu-C18 diacid])KILLEQEKQKKQREQAETN[Ac6c]QILAQV-NH2
SMILES: CC[C@H](C)[C@H](NC(C)=O)C(=O)N[C@H](C(=O)N[C@@H](CC(C)C)C(=O)N[C@@H](CO)C(=O)N[C@@H](CC(C)C)C(=O)N[C@@H](CC(=O)O)C(=O)N[C@@H](C(=O)N1CCC[C@H]1C(=O)N[C@H](C(=O)N[C@@H](CCCCN)C(=O)N[C@@H](CC(C)C)C(=O)N[C@@H](CCCCNC(=O)CC[C@H](NC(=O)CCCCCCCCCCCCCCCCC(=O)O)C(=O)O)C(=O)N[C@@H](CCCCN)C(=O)N[C@H](C(=O)N[C@@H](CC(C)C)C(=O)N[C@@H](CC(C)C)C(=O)N[C@@H](CCC(=O)O)C(=O)N[C@@H](CCC(N)=O)C(=O)N[C@@H](CCC(=O)O)C(=O)N[C@@H](CCCCN)C(=O)N[C@@H](CCC(N)=O)C(=O)N[C@@H](CCCCN)C(=O)N[C@@H](CCCCN)C(=O)N[C@@H](CCC(N)=O)C(=O)N[C@@H](CCCNC(=N)N)C(=O)N[C@@H](CCC(=O)O)C(=O)N[C@@H](CCC(N)=O)C(=O)N[C@@H](C)C(=O)N[C@@H](CCC(=O)O)C(=O)N[C@H](C(=O)N[C@@H](CC(N)=O)C(=O)NC1(C(=O)N[C@@H](CCC(N)=O)C(=O)N[C@H](C(=O)N[C@@H](CC(C)C)C(=O)N[C@@H](C)C(=O)N[C@@H](CCC(N)=O)C(=O)N[C@H](C(N)=O)C(C)C)[C@@H](C)CC)CCCCC1)[C@@H](C)O)[C@@H](C)CC)[C@@H](C)CC)C(C)C)C(C)C

Emax (% I) (CRF1R receptor): 15%
EC50 [nM] (cAMP) [1]: 0.19 nM
B4: SEQ ID NO 135 (peptide)
peptide: Ac-IVLSLD[dV]PIKLK([γGlu-C18 diacid])KILLEQEKQKKQREQAETN[Ac5c]QILAQV-NH2
SMILES: CC[C@H](C)[C@H](NC(C)=O)C(=O)N[C@H](C(=O)N[C@@H](CC(C)C)C(=O)N[C@@H](CO)C(=O)N[C@@H](CC(C)C)C(=O)N[C@@H](CC(=O)O)C(=O)N[C@@H](C(=O)N1CCC[C@H]1C(=O)N[C@H](C(=O)N[C@@H](CCCCN)C(=O)N[C@@H](CC(C)C)C(=O)N[C@@H](CCCCNC(=O)CC[C@H](NC(=O)CCCCCCCCCCCCCCCCC(=O)O)C(=O)O)C(=O)N[C@@H](CCCCN)C(=O)N[C@H](C(=O)N[C@@H](CC(C)C)C(=O)N[C@@H](CC(C)C)C(=O)N[C@@H](CCC(=O)O)C(=O)N[C@@H](CCC(N)=O)C(=O)N[C@@H](CCC(=O)O)C(=O)N[C@@H](CCCCN)C(=O)N[C@@H](CCC(N)=O)C(=O)N[C@@H](CCCCN)C(=O)N[C@@H](CCCCN)C(=O)N[C@@H](CCC(N)=O)C(=O)N[C@@H](CCCNC(=N)N)C(=O)N[C@@H](CCC(=O)O)C(=O)N[C@@H](CCC(N)=O)C(=O)N[C@@H](C)C(=O)N[C@@H](CCC(=O)O)C(=O)N[C@H](C(=O)N[C@@H](CC(N)=O)C(=O)NC1(C(=O)N[C@@H](CCC(N)=O)C(=O)N[C@H](C(=O)N[C@@H](CC(C)C)C(=O)N[C@@H](C)C(=O)N[C@@H](CCC(N)=O)C(=O)N[C@H](C(N)=O)C(C)C)[C@@H](C)CC)CCCC1)[C@@H](C)O)[C@@H](C)CC)[C@@H](C)CC)C(C)C)C(C)C
